Experimental data reported in US20240132587A1 (AstraZeneca / MedImmune, published 2024).

B1: ZP1I16_D05 IgG1 (antibody, V domains shown)
VH: QVQLVQSGAEVKKPGSSVKVSCKASGGTFSSYAISWVRQAPGQGLEWMGGIIPIFGTANYAQKFQGRVTITADESTSTAYMELSSLRSEDTAVYYCARGFIRYGVFDYWGQGTLVTVSS
VL: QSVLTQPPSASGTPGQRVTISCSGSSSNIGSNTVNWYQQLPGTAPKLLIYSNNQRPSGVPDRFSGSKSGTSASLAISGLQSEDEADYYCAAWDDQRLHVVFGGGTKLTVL
notes: Tested as IgG1 with lambda light chain (pOE-IgG1 (λLC))
B2: 008LYG_D08 IgG1 (antibody, V domains shown)
VH: QVQLVQSGAEVKKPGSSVKVSCKASGGTFSSYAISWVRQAPGQGLEWMGGIIPIFGTANYAQKFQGRVTITADESTSTAYMELSSLRSEDTAVYYCARGYQGMGVFDPWGQGTLVTVSS
VL: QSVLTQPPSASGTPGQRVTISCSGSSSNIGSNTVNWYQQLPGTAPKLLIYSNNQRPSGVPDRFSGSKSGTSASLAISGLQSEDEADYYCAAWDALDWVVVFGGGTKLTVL
notes: as for B1
B3: 008M0G_G03 IgG1 (antibody, V domains shown)
VH: QVQLVQSGAEVKKPGSSVKVSCKASGGTFSSYAISWVRQAPGQGLEWMGGIIPIFGTANYAQKFQGRVTITADESTSTAYMELSSLRSEDTAVYYCARGYPRYGVFDYWGQGTLVTVSS
VL: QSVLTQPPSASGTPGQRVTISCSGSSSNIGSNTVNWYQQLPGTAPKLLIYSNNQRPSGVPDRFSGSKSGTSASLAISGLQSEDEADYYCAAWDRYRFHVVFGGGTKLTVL
notes: as for B1
B4: ZP1I18_B08 IgG1 (antibody, V domains shown)
VH: QVQLVQSGAEVKKPGSSVKVSCKASGGTFSSYAISWVRQAPGQGLEWMGGIIPIFGTANYAQKFQGRVTITADESTSTAYMELSSLRSEDTAVYYCARGFIRYGVFDYWGQGTLVTVSS
VL: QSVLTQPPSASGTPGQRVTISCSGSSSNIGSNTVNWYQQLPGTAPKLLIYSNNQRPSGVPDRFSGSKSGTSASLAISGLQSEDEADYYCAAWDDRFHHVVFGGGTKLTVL
notes: as for B1
B5: 008LY1_D04 IgG1 (antibody, V domains shown)
VH: QVQLVQSGAEVKKPGSSVKVSCKASGGTFSSYAISWVRQAPGQGLEWMGGIIPIFGTANYAQKFQGRVTITADESTSTAYMELSSLRSEDTAVYYCARGYVQYGYFDYWGQGTLVTVSS
VL: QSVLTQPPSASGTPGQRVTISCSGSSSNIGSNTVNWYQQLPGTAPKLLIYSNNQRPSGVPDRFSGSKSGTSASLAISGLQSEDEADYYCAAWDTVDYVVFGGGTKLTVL
notes: as for B1

How the values were obtained:
[1] = target: T1, human CLDN18.2 (human, UniProt P56856-2 1-261); test: flow cytometry, IgG1 (0-533 nM) on HEK293 cells expressing human CLDN18.2
T1 construct: whole, on cells; also called CLDN18.2 wild-type
T1 sequence (looked up): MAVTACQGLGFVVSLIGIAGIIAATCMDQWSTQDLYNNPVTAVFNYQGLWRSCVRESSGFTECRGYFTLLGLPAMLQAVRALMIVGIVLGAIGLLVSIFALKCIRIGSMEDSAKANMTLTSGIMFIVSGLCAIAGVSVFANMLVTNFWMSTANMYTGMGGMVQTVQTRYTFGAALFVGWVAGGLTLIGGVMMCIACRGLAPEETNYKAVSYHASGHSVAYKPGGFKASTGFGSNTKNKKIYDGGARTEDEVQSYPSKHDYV
Description: (§1) Purified CLDN18.2 antibodies were then characterized for affinity and cross-reactivity by flow cytometry. Briefly. HEK293 cells expressing human, cynomolgous monkey, rat or mouse CLDN18.2 were resuspended in FACS Buffer, stained with varying antibody concentrations (0-533 nM), washed with FACS Buffer, stained with Alexa Fluor® 647 AffiniPure F(ab′)₂ Fragment Goat Anti-Human IgG, washed with FACS buffer and stained with FACS buffer supplemented with DAPI. Antibody binding to cells was assessed on a FACSymphony (BD) with gates for live/dead cells. Histograms of median fluorescence intensity (MFI) were used to calculate the geometric mean for each antibody at a given concentration (FlowJo, LLC). Geometric means were plotted in Prism (GraphPad) and used to calculated binding EC₅₀. Representative results are shown for 5 antibodies (ZP1I16_D05 IgG1, 008LY1_D04 IgG1, 08LYG_D08 IgG1, 008M0G_G03 IgG1, ZP1I18_B08 IgG1) and 1 negative control antibody (R347 IgG1) although 31 other prospective antibodies were also characterized (Table 1).

[2] = target: T1, human CLDN18.2; test: flow cytometry on HEK293 cells expressing human CLDN18.2 (FIG. 2A)
Source text: FIGS. 2A-2D show CLDN18.2 binding affinity and species cross-reactivity of select leads as determined by flow cytometry measurement in HEK293 cells expressing human (FIG. 2A), cyno (FIG. 2B), rat (FIG. 2C) or mouse (FIG. 2D) CLDN18.2. All leads bind human and cyno CLDN18.2 (99% homology), most leads bind rat CLDN18.2 (90% homology) and only one internal lead binds murine CLDN18.2 (89% homology. R347 is used as a negative control.
as §1

[3] = target: T2, mouse CLDN18.2 (mouse, UniProt P56857-3 1-264); test: flow cytometry, IgG1 (0-533 nM) on HEK293 cells expressing mouse CLDN18.2
T2 construct: whole, on cells; also called murine CLDN18.2; mCLDN18.2
T2 sequence (looked up): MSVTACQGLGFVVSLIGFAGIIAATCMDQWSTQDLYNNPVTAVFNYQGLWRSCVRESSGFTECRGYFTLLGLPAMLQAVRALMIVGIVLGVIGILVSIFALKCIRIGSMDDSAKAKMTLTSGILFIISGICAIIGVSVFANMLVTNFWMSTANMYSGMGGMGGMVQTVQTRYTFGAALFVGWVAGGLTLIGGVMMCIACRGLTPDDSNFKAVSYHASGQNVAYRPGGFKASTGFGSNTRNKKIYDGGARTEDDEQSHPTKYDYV
Description: as §1

Binder	binding result [1]	binding result [2]	binding result [3]
B1	binds		
B2		binds	binds
B3		binds	
B4		binds	
B5		binds	
